Measurements taken from patent US20200299408A1 (Genentech, published 2020).
Changes are numbered by the printed parent chain.

Key:
[1] = molecular target: T1, single chain human CD3ε-26mer-CD3γ (CD3εγ) (human); assay: Biacore, human CD3εγ on chip, Fab in flow through
T1 construct: also called human CD3εγ
T1 chain: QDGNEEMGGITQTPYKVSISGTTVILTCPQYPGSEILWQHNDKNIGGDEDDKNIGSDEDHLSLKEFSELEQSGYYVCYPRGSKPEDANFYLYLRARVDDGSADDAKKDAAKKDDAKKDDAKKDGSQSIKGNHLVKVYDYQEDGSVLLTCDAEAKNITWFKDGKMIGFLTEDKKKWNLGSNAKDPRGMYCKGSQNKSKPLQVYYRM
Description: Binding affinities for the each of the CD3/CD20 TDBs were tested by Biacore or FACS analysis, as described above for the anti-CD3 antibodies. Briefly, for Biacore binding assays, human CD3εγ was immobilized on Biacore Series S CM5 sensor chip using the amine coupling kit from Biacore and CD3/CD20 TDBs or Fab variants thereof were in the flow through. For FACS binding assays, either Bjab cells (for B cell antigens) or Jurkat cells (for CD3 antigen) were incubated with various concentrations of TDB antibodies at 4° C. for 30 minutes, then cells were washed and incubated with 2nd antibody (anti-huIgG-PE; BD Bioscience) for another 15 minutes, before cells were washed again and ready for FACS analysis.

[2] = molecular target: T1, single chain human CD3ε-26mer-CD3γ …; assay: Biacore, monovalent KD of the CD3 arm; CD3 antigen not named on the sheet (reactivity hu, cyno)
[3] = molecular target: T1, single chain human CD3ε-26mer-CD3γ …; assay: Biacore full (multi-) cycle kinetics; reference of the ratio column
Text: (§1) In addition, position 95 in HVR-H3 was also mutated to serine, threonine, or glutamate. Variants with these single point mutations were expressed as Fabs in HEK293 cells and initially screened with a single cycle kinetics method on a Biacore T100. Selected variants were also scaled up and purified for a conventional multi-cycle kinetics method. For single cycle kinetics, Biacore Series S CM5 sensor chips were immobilized with anti-human Fab antibodies (Human Fab capture kit, GE Healthcare). […] For conventional multi-cycle kinetics, human CD3εγ, cyno CD3εγ, or a 27-mer peptide were immobilized on Biacore Series S CM5 sensor chip using the amine coupling kit from Biacore. Serial 3-fold dilutions of each Fab variant were injected at a flow rate of 30 μl/min. Each sample was analyzed with a protocol of 3-minute association and 3-minute dissociation. In both methods, the Biacore chips were regenerated using 10 mM Glycine (pH 1.7). Binding response was corrected by blank subtraction and a 1:1Languir model of simultaneous fitting of kₒₙ and koff was used for kinetics analysis.

G8A = molecular target: T2, G8A; assay: SPR (Biacore 4000): CD3εγ variant captured from the periplasmic fraction on UCHT1v9; analyte a bispecific antibody with one 38E4v1 arm and one irrelevant arm, 0.39-100 nM
T2 construct: Residue number counts from the N-terminus of CD3ε; also called CD3εγ G8A
T2 single chain CD3ε-26mer linker-CD3γ: T1 chain with G8A
Description: (§2) The secreted CD3εγ variants were captured from the crude periplasmic fraction using anti-CD3 antibody UCHT1v9. UCHT1v9 was immobilized on a CM5 serios S chip through amine coupling using the anti-human IgG (Fc) antibody capture kit (BR-1008-39) from GE Healthcare. SPR measurements were performed on the Biacore 4000 instrument, utilizing kinetic evaluation software. In order to measure monovalent binding affinities, anti-CD3 bispecific antibodies were used in which one arm was the anti-CD3 to be tested and the arm recognized an irrelevant antigen. The bispecific anti-CD3 antibodies were passed over the captured supernatant in a concentration series of two-fold dilutions from 0.39 to 100 nM. The resulting kinetics (FIG. 13D) were measured and calculated using Biacore 4000 BIAevaluation software (product code 28-9664-57).

E6A = molecular target: T3, E6A; assay: as above
T3 construct: Residue number counts from the N-terminus of CD3ε; also called CD3εγ E6A; CD3 mutant E6A
T3 single chain CD3ε-26mer linker-CD3γ: T1 chain with E6A
Description: as §2

D2A = molecular target: T4, D2A; assay: as above
T4 construct: Residue number counts from the N-terminus of CD3ε; also called CD3εγ D2A; CD3 mutant D2A
T4 single chain CD3ε-26mer linker-CD3γ: T1 chain with D2A
Description: as §2

[4] = molecular target: T1, single chain human CD3ε-26mer-CD3γ …; assay: Biacore full (multi-) cycle kinetics: antigen on chip, Fab injected; antigen not named on the sheet, taken as human CD3εγ
Text: as §1

[5] = molecular target: T1, single chain human CD3ε-26mer-CD3γ …; assay: Biacore, human CD3εγ on chip, antibody in flow-through
[6] = molecular target: T1, single chain human CD3ε-26mer-CD3γ …; assay: SPR (Biacore 4000): CD3εγ (row WT) captured from the periplasmic fraction on UCHT1v9; analyte a bispecific antibody with one 38E4v1 arm and one irrelevant arm, 0.39-100 nM
Description: as §2

Kd [1]: 0.8 nM
koff [1]: 0.00507 s⁻¹
kon [1]: 6.06e+06 M⁻¹ s⁻¹
Kd [2]: 1.3 nM
ratio (fold) [3]: 1 fold
Kd (G8A): 8 nM
Kd (E6A): 65 nM
Kd (D2A): 1500 nM
Kd [4]: 0.8 nM
koff [4]: 0.00433 s⁻¹
kon [4]: 5.44e+06 M⁻¹ s⁻¹
Kd [5]: 0.8 nM
koff [5]: 0.0051 s⁻¹
kon [5]: 6.06e+06 M⁻¹ s⁻¹
Kd [6]: 3 nM
B1: hu38E4.v1 Fab (Fab, V domains shown)
VH: EVQLVQSGAEVKKPGASVKVSCKASGFTFTSYYIHWVRQAPGQGLEWIGWIYPENDNTKYNEKFKDRVTITADTSTSTAYLELSSLRSEDTAVYYCARDGYSRYYFDYWGQGTLVTVSS
VL: DIVMTQSPDSLAVSLGERATINCKSSQSLLNSRTRKNYLAWYQQKPGQSPKLLIYWTSTRKSGVPDRFSGSGSGTDFTLTISSLQAEDVAVYYCKQSFILRTFGQGTKVEIK
notes: Humanized anti-CD3 Fab; Point mutants of it were expressed as Fabs in HEK293 cells
